Target: the molecule itself
Experiment: SEC; Beckman Ultraspherogel SEC2000 column, 20 mM Tris-HCl, 300 mM NaCl, pH 7; size by comparison with calibration standards; oligomer of the protein with itself

Row | Protein | stoichiometry N
1 | CcmK1 from Synechocystis sp. PCC6803 with C-terminal TEV site and His4 tag (K1^-TH) (natural protein, UniProt P72760 1-111, looked up, CcmK1, Synechocystis sp; PCC6803, full-length gene, codon-optimized for E. coli; A TEV protease recognition site stands between protein and His4 tag; also called K1^-TH 6803; CcmK1 Syn6803; source: E. coli BL21 (DE3), purified (TALON cobalt IMAC); not shown: His4, C-terminal, kept) MSIAVGMIETLGFPAVVEAADSMVKAARVTLVGYEKIGSGRVTVIVRGDVSEVQASVTAGIENIRRVNGGEVLSNHIIARPHENLEYVLPIRYTEAVEQFREIVNPSIIRR | 6
2 | CcmK4 from Synechocystis sp. PCC6803 with N-terminal His4 tag and TEV site (^HT-K4) (natural protein, UniProt P73407 1-112, looked up, CcmK4, Synechocystis sp; PCC6803, full-length gene, codon-optimized for E. coli; A TEV site stands between tag and protein; source: E. coli BL21 (DE3), purified (TALON cobalt IMAC); not shown: His4, N-terminal, kept) MSAQSAVGSIETIGFPGILAAADAMVKAGRITIVGYIRAGSARFTLNIRGDVQEVKTAMAAGIDAINRTEGADVKTWVIIPRPHENVVAVLPIDFSPEVEPFREAAEGLNRR | 6
3 | CcmK4 from Synechocystis sp. PCC6803 with C-terminal TEV site and His4 tag (K4^-TH) (natural protein, UniProt P73407 1-112, looked up, CcmK4, Synechocystis sp; PCC6803, full-length gene, codon-optimized for E. coli; source: E. coli BL21 (DE3), purified (TALON cobalt IMAC); not shown: His4, C-terminal, kept) MSAQSAVGSIETIGFPGILAAADAMVKAGRITIVGYIRAGSARFTLNIRGDVQEVKTAMAAGIDAINRTEGADVKTWVIIPRPHENVVAVLPIDFSPEVEPFREAAEGLNRR | 6

Target: the molecule itself
Experiment: AFM imaging; purified protein adsorbed on freshly cleaved mica, imaged in buffer in contact mode at ambient temperature; 10 mM NaPi, MES or Tris, 300 mM NaCl, pH 5.0 to 8.0, some with 0.5 mM additives; hexamers tiling into 2D assemblies

Row | Protein | binding result
4 | R28A mutant of K1^-TH (CcmK1 Syn6803) (natural protein, Synechocystis sp. PCC6803, UniProt P72760 1-111, looked up, CcmK1, Synechocystis sp; PCC6803, as K1^-TH with R28A; TEV site between protein and tag as in K1^-TH; source: E. coli BL21 (DE3), purified (TALON cobalt IMAC); not shown: His4, C-terminal, kept) MSIAVGMIETLGFPAVVEAADSMVKAAAVTLVGYEKIGSGRVTVIVRGDVSEVQASVTAGIENIRRVNGGEVLSNHIIARPHENLEYVLPIRYTEAVEQFREIVNPSIIRR | binds
5 | R80A mutant of K1^-TH (CcmK1 Syn6803) (natural protein, Synechocystis sp. PCC6803, UniProt P72760 1-111, looked up, CcmK1, Synechocystis sp; PCC6803, as K1^-TH with R80A; TEV site between protein and tag as in K1^-TH; source: E. coli BL21 (DE3), purified (TALON cobalt IMAC); not shown: His4, C-terminal, kept) MSIAVGMIETLGFPAVVEAADSMVKAARVTLVGYEKIGSGRVTVIVRGDVSEVQASVTAGIENIRRVNGGEVLSNHIIAAPHENLEYVLPIRYTEAVEQFREIVNPSIIRR | binds
6 | R28A/R80A double mutant of K1^-TH (CcmK1 Syn6803) (natural protein, Synechocystis sp. PCC6803, UniProt P72760 1-111, looked up, CcmK1, Synechocystis sp; PCC6803, as K1^-TH with R28A and R80A; TEV site between protein and tag as in K1^-TH; source: E. coli BL21 (DE3), purified (TALON cobalt IMAC); not shown: His4, C-terminal, kept) MSIAVGMIETLGFPAVVEAADSMVKAAAVTLVGYEKIGSGRVTVIVRGDVSEVQASVTAGIENIRRVNGGEVLSNHIIAAPHENLEYVLPIRYTEAVEQFREIVNPSIIRR | binds
7 | D49A mutant of K1^-TH (CcmK1 Syn6803) (natural protein, Synechocystis sp. PCC6803, UniProt P72760 1-111, looked up, CcmK1, Synechocystis sp; PCC6803, as K1^-TH with D49A; TEV site between protein and tag as in K1^-TH; source: E. coli BL21 (DE3), purified (TALON cobalt IMAC); not shown: His4, C-terminal, kept) MSIAVGMIETLGFPAVVEAADSMVKAARVTLVGYEKIGSGRVTVIVRGAVSEVQASVTAGIENIRRVNGGEVLSNHIIARPHENLEYVLPIRYTEAVEQFREIVNPSIIRR | binds
8 | AAN K1^-TH: triple mutant of CcmK1 Syn6803 with N63 I64 R65 replaced by AAN of CcmK2 (natural protein, Synechocystis sp. PCC6803, UniProt P72760 1-111, looked up, CcmK1, Synechocystis sp; PCC6803, as K1^-TH with residues 63-65 NIR replaced by AAN; TEV site between protein and tag as in K1^-TH; also called A^63AN K1^-TH 6803; source: E. coli BL21 (DE3), purified (TALON cobalt IMAC); not shown: His4, C-terminal, kept) MSIAVGMIETLGFPAVVEAADSMVKAARVTLVGYEKIGSGRVTVIVRGDVSEVQASVTAGIEAANRVNGGEVLSNHIIARPHENLEYVLPIRYTEAVEQFREIVNPSIIRR | binds
9 | NIR K2^-TH: triple mutant of CcmK2 Syn6803 with A63 A64 N65 replaced by NIR of CcmK1 (natural protein, Synechocystis sp. PCC6803, UniProt P72761 1-103, looked up, CcmK2, Synechocystis sp; PCC6803, as K2^-TH with residues 63-65 AAN replaced by NIR; TEV site between protein and tag as in K2^-TH; also called N^63IR K2^-TH 6803; source: E. coli BL21 (DE3), purified (TALON cobalt IMAC); not shown: His4, C-terminal, kept) MSIAVGMIETRGFPAVVEAADSMVKAARVTLVGYEKIGSGRVTVIVRGDVSEVQASVSAGIENIRRVNGGEVLSTHIIARPHENLEYVLPIRYTEEVEQFRTY | binds

Target: the molecule itself
Experiment: native MS; nano-ESI Q-ToF, positive ion mode, 150 mM ammonium acetate pH 8, soft ionization; tandem MS/MS (CID) of hexamer ions gives monomers and pentamers; oligomer of the protein with itself

Row | Protein | stoichiometry N
10 | CcmK2 from Synechococcus elongatus PCC 7942 with C-terminal His6 tag (K2^-H Syn7942) (natural protein, Synechococcus elongatus PCC7942, UniProt Q03511 1-102, looked up, also called K2^-H 7942; Syn7942 K2^-H; source: E. coli BL21 (DE3), purified (TALON cobalt IMAC); not shown: His6, C-terminal, kept) MPIAVGMIETLGFPAVVEAADAMVKAARVTLVGYEKIGSGRVTVIVRGDVSEVQASVSAGLDSAKRVAGGEVLSHHIIARPHENLEYVLPIRYTEAVEQFRM | 6
11 | CcmK1 from Synechocystis sp. PCC6803, TEV-proteolysis product of K1^-TH (K1^-) (natural protein, UniProt P72760 1-111, looked up, CcmK1, Synechocystis sp; PCC6803, full-length gene, codon-optimized for E. coli; Measured mass indicated loss of the first Met residue; also called untagged K1^- 6803; Syn6803 K1^-; source: E. coli BL21 (DE3), purified (TALON cobalt IMAC), tag removed with turbo TEV protease; not shown: His4, C-terminal, cleaved) MSIAVGMIETLGFPAVVEAADSMVKAARVTLVGYEKIGSGRVTVIVRGDVSEVQASVTAGIENIRRVNGGEVLSNHIIARPHENLEYVLPIRYTEAVEQFREIVNPSIIRR | 6
12 | CcmK4 from Synechocystis sp. PCC6803, TEV-proteolysis product of ^HT-K4 (^-K4) (natural protein, UniProt P73407 1-112, looked up, CcmK4, Synechocystis sp; PCC6803, full-length gene, codon-optimized for E. coli; also called Syn6803 -K4; source: E. coli BL21 (DE3), purified (TALON cobalt IMAC), tag removed with turbo TEV protease; not shown: His4, N-terminal, cleaved) MSAQSAVGSIETIGFPGILAAADAMVKAGRITIVGYIRAGSARFTLNIRGDVQEVKTAMAAGIDAINRTEGADVKTWVIIPRPHENVVAVLPIDFSPEVEPFREAAEGLNRR | 6
13 | CcmK4 from Synechocystis sp. PCC6803, TEV-proteolysis product of K4^-TH (K4^-) (natural protein, UniProt P73407 1-112, looked up, CcmK4, Synechocystis sp; PCC6803, full-length gene, codon-optimized for E. coli; Sample partly degraded by proteolysis (species of similar but not identical mass in native MS); Measured mass indicated loss of the first Met residue; also called Syn6803 K4^-; source: E. coli BL21 (DE3), purified (TALON cobalt IMAC), tag removed with turbo TEV protease; not shown: His4, C-terminal, cleaved) MSAQSAVGSIETIGFPGILAAADAMVKAGRITIVGYIRAGSARFTLNIRGDVQEVKTAMAAGIDAINRTEGADVKTWVIIPRPHENVVAVLPIDFSPEVEPFREAAEGLNRR | 6

— publication PMC5608322, “Spontaneous non-canonical assembly of CcmK hexameric components from β-carboxysome shells of cyanobacteria” (PLoS ONE, 2017)
